Reference: patent US20090298769A1 (CLEVELAND CLINIC FOUNDATION, published 2009)

Target: T1, VEGFR-2 of human endothelial cells (HUVEC) (human, UniProt P35968 20-1356)
T1 construct: whole, on cells; Endogenous, detected in cell lysates or by staining; also called VEGF receptor-2
Test: co-immunoprecipitation (anti-VEGFR-2 IP, anti-integrin β5 blot), HUVEC with or without VEGF

T1 sequence (P35968 20-1356): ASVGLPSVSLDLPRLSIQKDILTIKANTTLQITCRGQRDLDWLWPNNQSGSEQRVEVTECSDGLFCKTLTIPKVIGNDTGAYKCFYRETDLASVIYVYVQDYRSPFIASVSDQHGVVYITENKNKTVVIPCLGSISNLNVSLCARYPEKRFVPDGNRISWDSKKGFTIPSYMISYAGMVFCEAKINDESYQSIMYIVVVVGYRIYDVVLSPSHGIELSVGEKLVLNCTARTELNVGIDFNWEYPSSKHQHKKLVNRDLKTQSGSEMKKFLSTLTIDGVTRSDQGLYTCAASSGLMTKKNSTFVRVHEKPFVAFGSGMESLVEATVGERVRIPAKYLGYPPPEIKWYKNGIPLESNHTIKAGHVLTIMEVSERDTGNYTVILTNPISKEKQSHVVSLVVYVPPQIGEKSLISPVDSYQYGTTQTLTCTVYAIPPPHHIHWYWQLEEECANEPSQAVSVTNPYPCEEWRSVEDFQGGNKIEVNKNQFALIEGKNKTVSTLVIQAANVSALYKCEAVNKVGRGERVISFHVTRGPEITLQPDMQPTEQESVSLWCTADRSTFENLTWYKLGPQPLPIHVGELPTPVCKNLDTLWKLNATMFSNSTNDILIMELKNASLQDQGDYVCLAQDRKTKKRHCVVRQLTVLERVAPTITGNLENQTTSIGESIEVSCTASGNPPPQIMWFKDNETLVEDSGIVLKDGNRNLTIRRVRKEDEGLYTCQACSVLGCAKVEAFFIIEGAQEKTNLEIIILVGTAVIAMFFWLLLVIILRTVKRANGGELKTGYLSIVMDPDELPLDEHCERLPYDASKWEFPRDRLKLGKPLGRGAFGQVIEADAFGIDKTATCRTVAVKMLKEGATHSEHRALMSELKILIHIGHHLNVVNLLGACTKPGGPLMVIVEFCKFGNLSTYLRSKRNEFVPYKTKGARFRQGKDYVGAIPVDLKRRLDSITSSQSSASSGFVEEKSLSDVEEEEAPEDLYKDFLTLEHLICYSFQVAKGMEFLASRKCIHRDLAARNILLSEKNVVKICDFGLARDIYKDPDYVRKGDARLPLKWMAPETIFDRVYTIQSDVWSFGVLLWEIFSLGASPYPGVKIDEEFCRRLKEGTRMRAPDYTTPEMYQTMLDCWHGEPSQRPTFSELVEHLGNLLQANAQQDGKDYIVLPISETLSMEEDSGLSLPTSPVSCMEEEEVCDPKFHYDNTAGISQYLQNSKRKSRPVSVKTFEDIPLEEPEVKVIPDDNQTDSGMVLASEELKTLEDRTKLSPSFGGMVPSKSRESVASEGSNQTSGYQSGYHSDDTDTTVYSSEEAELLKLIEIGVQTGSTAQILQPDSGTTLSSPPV

B1: β5 integrin of HUVEC (receptor, human, UniProt P18084 24-799, looked up)
chain: GLNICTSGSATSCEECLLIHPKCAWCSKEDFGSPRSITSRCDLRANLVKNGCGGEIESPASSFHVLRSLPLSSKGSGSAGWDVIQMTPQEIAVNLRPGDKTTFQLQVRQVEDYPVDLYYLMDLSLSMKDDLDNIRSLGTKLAEEMRKLTSNFRLGFGSFVDKDISPFSYTAPRYQTNPCIGYKLFPNCVPSFGFRHLLPLTDRVDSFNEEVRKQRVSRNRDAPEGGFDAVLQAAVCKEKIGWRKDALHLLVFTTDDVPHIALDGKLGGLVQPHDGQCHLNEANEYTASNQMDYPSLALLGEKLAENNINLIFAVTKNHYMLYKNFTALIPGTTVEILDGDSKNIIQLIINAYNSIRSKVELSVWDQPEDLNLFFTATCQDGVSYPGQRKCEGLKIGDTASFEVSLEARSCPSRHTEHVFALRPVGFRDSLEVGVTYNCTCGCSVGLEPNSARCNGSGTYVCGLCECSPGYLGTRCECQDGENQSVYQNLCREAEGKPLCSGRGDCSCNQCSCFESEFGKIYGPFCECDNFSCARNKGVLCSGHGECHCGECKCHAGYIGDNCNCSTDISTCRGRDGQICSERGHCLCGQCQCTEPGAFGEMCEKCPTCPDACSTKRDCVECLLLHSGKPDNQTCHSLCRDEVITWVDTIVKDDQEAVLCFYKTAKDCVMMFTYVELPSGKSNLTVLREPECGNTPNAMTILLAVVGSILLVGLALLAIWKLLVTIHDRREFAKFQSERSRARYEMASNPLYRKPISTHTVDFTFNKFNKSYNGTVD
notes: whole, on cells; also called integrin β5
- binding result: no binding
